Data from publication PMC9409239.

Target: N-terminally His-tagged recombinant ribosomal protein S1 of E. coli (from plasmid p16rpsAHis) (E. coli) (UniProt P0AG67)
Experiment: native gel or EMSA; constant molar amount of S1 mixed with increasing RIII (RIII:S1 0.1:1 to 5:1), 10 min at room temperature, proteins dialysed against 50 mM sodium phosphate pH 7.4, 100 mM NaCl; native 14% PAGE, Coomassie

N-terminally 6His-tagged RIII protein of the T4 phage (from plasmid p21drIIIHis) (natural protein)
stoichiometry N (RIII:S1 molar ratio): 1
